In assay [1] the target is TBC1D23 C-terminal domain (mouse) (UniProt Q8K0F1). Briefly: ITC; peptide (0.8 to 5 mM) titrated into 100 μM TBC1D23 C-terminal domain, 20°C, 100 mM NaCl, 100 mM tris pH 7.4, 1 mM TCEP, Nano ITC. (In general: In ITC the heat of successive injections is recorded.)
Assay [2] has as its target Mouse TBC1D23 (559-684), C-terminal domain (mouse) (UniProt Q8K0F1). Briefly: ITC; peptide (0.8 to 5 mM) titrated into 100 uM TBC1D23 C-terminal domain, 20 injections of 2.4 ul; 20°C; 100 mM NaCl, 100 mM tris pH 7.4, 1 mM TCEP; mean of three runs.

Sequence of TBC1D23 C-terminal domain (mouse) (Q8K0F1 559-684): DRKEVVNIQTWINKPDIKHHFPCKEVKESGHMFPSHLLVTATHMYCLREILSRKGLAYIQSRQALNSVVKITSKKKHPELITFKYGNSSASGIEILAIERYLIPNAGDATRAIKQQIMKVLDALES
Sequence of Mouse TBC1D23 (559-684), C-terminal domain (mouse) (Q8K0F1 559-684): as above

Consider FAM174C peptide (TLY-like motif), for which the Kd in assay [1] is 16 µM. The substance NPDC1 peptide with the acidic TLY motif showed a Kd in assay [2] of 2.9 µM. Same read-out and setting: under “FAM174C peptide with the acidic TLY motif” stands 15.7 µM. In assay [1], CPD peptide (acidic TLY region, ITC) displayed a Kd of 10.6 µM and a stoichiometry N of 1. In assay [1], “KIAA0319 peptide (acidic TLY motif of the tail)” had a Kd of 35 µM. Same read-out and setting: under “NPDC1 peptide (acidic TLY motif of the tail)” stands 3 µM.

In turn, “KIAA0319 peptide with the acidic TLY motif” gave a Kd in assay [2] of 35.2 µM.

Broadly, the Kd is the equilibrium constant for the complex coming apart. By stoichiometry N is commonly meant the number of molecules, sites or subunits per partner or assembly.

(Values after publication PMC11093223, “Cargo selective vesicle tethering: The structural basis for binding of specific cargo proteins by the Golgi tether component TBC1D23” (Science Advances, 2024).)
